Values quoted from earlier work in paper doi:10.1101/2021.06.28.450170.

Experiments:
[1] = molecular target: Cys481 (UniProt position 481, YMANGCLLNYL)
[2] = molecular target: Cys442 (UniProt position 442, FMEHGCLSDYL)
[3] = molecular target: Cys797 (UniProt position 797, LMPFGCLLDYV); experiment: chemical modification

**Q.** For “Bruton's tyrosine kinase (BTK) (Homo sapiens)”, which pKa [1] is on record?
**A.** Its pKa is 7.7.

**Q.** Which pKa [2] does the source give for “Interleukin-2-inducible T-cell kinase (ITK) (Homo sapiens)” here?
**A.** The pKa was 8.5.

**Q.** Which pKa [3] does the source give for “Epidermal growth factor receptor (EGFR) kinase (Homo sapiens)” here?
**A.** Its pKa is 5.5.
